The values below come from the DeepSol protein solubility set.

The data set is described as follows: soluble on expression in E. coli; label from the status in PepcDB or PDB records.
As to “MGSDKIHHHHHHMATPPFHYQHMFPLGPDKTEYYLLTKDYVSVSEFEGKPILKIEKEGLTAMANAAFRDVSFLLRRSHNEQVAKILSDPEASDNDKYVALTFLRNAEVSAKGKLPLCQDTGTAIIHGEKGQQVWTGYCDEEALSLGVYKTYTEENLRYSQNAPLTMYDEVNTKCNLPAQIDLEATEGMEYKFLCVTKGGGSANKTYLYQETKAVLNPATLVPFLVEKMKTLGTAACPPYHIAFVIGGTSAEKNLLTVKLASTHYYDELPTTGNEYGRAFRDVELEKQVLEEAYKIGLGAQFGGKYMAHDVRIIRLPRHGASCPIGLGVSCSADRNIKCKINKDGIWIEKMDDKPGELIPAELREAGEGDVVKIDLNQPMADILKELTKYPVATRLSLNGTIIVGRDIAHAKLKERLDRGEDLPQYIKDHPIYYAGPAKTPEGMACGSMGPTTAGRMDPYVDLFQSHGGSMIMLAKGNRSQQVTDACKKYGGFYLGSIGGPAAILAQNNIKSIECVEYPELGMEAIWKIEVEDFPAFILVDDKGNDFFKQLKPRCLGNCK”, the “soluble on expression in E. coli” value is given as “not soluble”. On to “MGSDKIHHHHHHMATVDLSQLPQPQIIEVLDFEVILREVKAVMIAAFPANQQASVTAALELESEPLNQIAQVIAYRELMLRQRINEGAASCMLSHAVSSDLDNLAANLNTERLVITAETETADAVMENDAAFRLRAQSAFEGLSVAGPTAAYEYFAKSASGKVKDAKAISPSPAVVVVSVISSEANGTASSELLSTVETALSAEDKRPVADRLTVQSAEIVDFAINAVLYLYPGPESEPIHTAAQKALQSWIGEQGMIGRDVARSSIMAALHVQGVQRVSVVEPPHDIVISDTQAAYCTGFTVTTGGIDG”, for which the “soluble on expression in E. coli” value is listed as “not soluble”. As for “MGSDKIHHHHHHMAVELRYDEEAVFLRRVNRFVVEVKSSRGVVRCHLMDTGRIDHLASPGRRGVLIAWLNRLGGKTVCRAQAFKTAGGVVAVVDSRVPNRLFAEAAPMVVGGDASIEAEREVFGSRLDFLISTGRGLWAVEVKGVNLSLDGVGLFPNAPSARAVKHLEVLARLAREGVKPLMAFVALRPDIRVFAPNYRVDRRFASLACTLLRRGLVGMVGIRVSIDLEPGVVRIRPVATAPVQCPPLQPGR”, the “soluble on expression in E. coli” value is reported as “not soluble”.

For the sequence “MGSDKIHHHHHHMAVLITRPGERGERLVEMLNKAGIMALHLPLISIIAGQELNRLPNKLQQLNCGDYVVAVSKNAVEYAQKTLSAVGFCWRSDLYYFTVGQRTAEYFASQIENSVYYPVEQESSEGLLNLPQMQDLQARNILILRANGGREFFTEQAILRGAKVETLECYQRMPIEYNKLEKISLCQRIGVDTIVVTSQEMLNYLVKLVPTNETGWLFSCRLVTVSQRIAALAKSVGWTNIVVADKADNLSLFLALQQ”, the “soluble on expression in E. coli” value was “not soluble”. For “MGSDKIHHHHHHMAVNRFRLENGKEELALYQIQLLKDQSHNENEEDKVSSSSFRQRILGNLLQPPNERPELPSGLYVLGLTGISGSGKSSVAQRLKNLGAYIIDSDHLGHRAYAPGGPAYQPVVEAFGTDILHKDGTINRKVLGSRVFGNKKQMKILTDIVWPVIAKLAREEMDVAVAKGKTLCVIDAAMLLEAGWQSMVHEVWTVVIPETEAVRRIVERDGLSEAAAQSRLQSQMSGQQLVEQSNVVLSTLWESHVTQSQVEKAWNLLQKRLPKAYQTRN”, the “soluble on expression in E. coli” value is recorded as “soluble”.

“MGSDKIHHHHHHMAVVQHHLPLSARLPARGIFEDDWRDRPSKRHPYPVILIHGTGVTKGDWMELGHALRSLGYAVWAPDFGMRSTAAVAESAAQVGAYIDAVLTVTKAKKAIVVGHSQGGILARYWMHNLDGANKVSHLISLAVPHHGTSHGGMMSPLGRTPRGTAVIDSLITGFFGASGFEMLHDSELIAQLNEHGDTLPYVYYSCIATRSDTIIQPVESCFLHGKLVRNIYAQAVSKHAIILHEDMPHDPRVRRLVIAEIERVERLTIPS”: the “soluble on expression in E. coli” value is given as “not soluble”. For “MGSDKIHHHHHHMAYADKKLYTDAGFTLERGEHLGIVGQNGAGKSTLIKILTGKVLPIAGRVEWKKKIQIGYLDQYADIPSGMSLIDFLHTAYSDLYDKEKKMTDLYSKYAELVDDKLLERATRFQNELDAADFYSIDNNVEQVITGLGLDSIGRDHIISEMSGGQRAKIILAKLLLEGNDVIILDEPTNYLDVSHIKWLEGYLQNYDGAALIISHDFDFLNNVANVILDVSFNTLTKYRGNFDQAMRQKTEKTEQQLRAYNKQQEVIKKTKTFIQKNKARASTTGRAKSREKMLAHMDIIEPPQTNPKATFKFPYIESQSTDALKAERLVVGYDPKKPVLNPITFSMSSGDKIVFTGFNGAGKSTLIKTLLGILPAISGKSKFSPSAKTNYFDQDLIWDDDKKTPLQIMQAAYPLEEQKQLRQRLGAAGINADNATKQMCLLSGGEQTKVKLALMELTPSNFLILDEPTNHLDEATKNSLKKAIQKFDGSLILVTHERSFYEGWIDKVIDIASMSNMQPGEVEE” the value was “not soluble”; for “MGSDKIHHHHHHMCLVVAARWPSRLVSSVKEDKMKPSTSRLTLLAGILGLPMALCLPLAAQAQSNQWQVNGFIGQGYISADGSEFIVGESGDTFDVTEAALHLSWMPDEHFRVAGAARYRQWGNLDESGLSADYLFAEYKFILDQGYVGARGGLFKSEAGFYTSTRDVSFTRPGILLPQSVYSDYLRDALLHITGGELFGGHPLLDGSLEWHLTLGDAQTSDDLTRNVVGSEEFGRFDADGYWGADLEYQDDSLRLGLTYFDAKSRYQSHLGGPFADGSLRSKHWIVSAQYRINFLEFTGEYLHWDRYVGGVFVPPELGIYEVRGYGYYLDVRGYLPGDVEVFVRYDHQVQDEKDPDGDKLAERGLPGYFGYAHDWTIGTRWLPAKDWMVAAEYHKVRGAAWVTPILLPNPAVQDKDWSLFAIEISYKFQW”, “not soluble”. Turning to “MGSDKIHHHHHHMCMYVFVKERVESRSFIPEEKIFELLEKTKNPDPARVREIIQKSLDKNRLEPEETATLLNVEDPELLEEIFEAARTLKERIYGNRIVLFAPLYIGNDCINDCVYCGFRVSNKVVERRTLTEEQLKEEVKALVSQGHKRLIVVYGEHPNYSPEFIARTIDIVYNTKYGNGEIRRVNVNAAPQTIEGYKIIKSVGIGTFQIFQETYHRETYLKLHPRGPKSNYNWRLYGLDRAMMAGIDDVGIGALFGLYDWKFEVMGLLYHTIHLEERFGVGPHTISFPRIKPAINTPYSQKPEHVVSDEDFKKLVAIIRLSVPYTGMILTAREPAKLRDEVIKLGVSQIDAGSRIGIGAYSHKEDDEDRKRQFTLEDPRPLDQVMRSLLKEGFVPSFCTACYRAGRTGEHFMEFAIPGFVKNFCTPNALFTLQEYLCDYATEETRKVGEEVIERELQKMNPKIRERVREGLEKIKRGERDVRF”, the “soluble on expression in E. coli” value was “not soluble”. For “MGSDKIHHHHHHMDAFYASVEQRDNPELCGKPLAVGHAEERGVVAAASYEARRYGVHSAMSSQKAKRLCPELIFVPGRMNVYKAVSRQIHDIFHTYTDIIEPLSLDEAFLDVTENKAGFSLAIDIAKDIKKRIRKELGLIASAGVSYNKFLAKIASDYRKPDGLCTIHPDQALDFIAHLPIESFWGVGPVTAQKMHALGIHNGTQLQACTLEMLTRQFGKAGNLYYDFARGIDLRPVEPIRIRKSVGCEHTLEKDISLHSSAIIELYHVVTELLERLKRTNFSGNTLTLKIKFHDFNQITRSITQDSELTSMDKILPLAKKLLKEIDYESHPIRLIGLSVSNPKEEIKKQWEQLSLEFKEWDD” the value was “not soluble”.

For “MGSDKIHHHHHHMDDFSEILARKRQGSLKVYLGYAAGVGKTYAMLQEAHRLAREGLDVVIGYVEPHDRADTLALVEGLEQVAPRKVAIAGSDFTEMDVPGIIARRPQVVLVDELAHTNAAGSENGKRYQDVLKVLEAGINVITTLNVQHLESVAERVESVAGVRVQERLPDAILRRADQVVNVDLTKEDLRERLRQGRIYSPEQAERALGGFFSYRNLSFLRELCLREASGDQVRKIEEQEHFPRHSAGDVIEGVMVALSSSPTDAETLIRRGVRIAHQMGSPCYVVYVQRPSENPTRIDSGLQRVLQGNLRLATQLGAEVVQLAGGDIAETLANFASERNVRHAVFGKSRLSPLLERVRGSFILEFLHDAVGVDVHIVNTTPRQPGQERA”, the “soluble on expression in E. coli” value was “not soluble”.

As to “MGSDKIHHHHHHMDIIDYLPQKMKAEAEAYMPCGLEEIRVRAGKQVQYMFAGGCRAGVYISHSDIEEMINYLSGYSFHAIAPQLAAGYFTVEGGHRVGIAGQMGCDGGKVTAVSEIASLNIRIAHQIRDVAMPLMPYIRDENSIYNTLVISRPGEGKTTFLRDCIRILSDGCDGKNALKVSVVDERSEIAACYLGVAQNDIGNSSDVLDNCPKSLGMRMLLRSMSPDVIAVDELGGEGDIEALNQLVSCGIRILGSVHGTNADDLRRKILPHAIERFVFIDHDEKGVRRYSIYDEAYRLLYSTVCGIGADKRLQQKKKGRYSDAV”, the “soluble on expression in E. coli” value is given as “not soluble”. The entry for “MGSDKIHHHHHHMDIKLKDFEGPLDLLLHLVSQYKVDIYEVPIVEVIEQYLNYIETLQVMKLEVAGDYMLMASQLMLIKSRRLLPKVVEHIEEDLEQDLLEKIEEYSRFKAVSQALAKQHDQRAKWYSKPKQELIFEDAILQEDKTVMDLFLAFSNIMAAKRAVLKNNHTVIERDDYKIEDMMASIKQRLEKENVIRLSAIFEECQTLNEVISIFLASLELIKLHVVFVEQLSNFGAIILRKEKK” is “not soluble”; for “MGSDKIHHHHHHMDIKQLKYFVEIVKSGFNLSIASKTLHISQPALSQIIKNFEESEDVYLFERYKGRLNGLTPAGERFYVNAEHIINEYKNMMEDLREDSVQFKGKVRIGIPPLILGIAFSDVVAQLVANNPDIEFDIVEKGAYDLNRMLILQELDYAVLLHPHKIDKSVVTEHVLQEDELTAFLNINHPLAKKDKIDWNDLNEQLLAIFNPTFMIHHKLMQKFTDENVKLKRYIMSGSWDFLLLSTTNSDFITILPSPVHDFFENSKIIEKPFNHPITWKVILCRPKKERYSHVDQHVFKFIIDFFSKKNS” it is “not soluble”.

Take “MGSDKIHHHHHHMDILLANPRGFCAGVNRAIQIVDRALELFGAPIYVRHEVVHNRHVVEDLRARGAIFVEELDEVPDAATVIFSAHGVPIAVREHAAARGLSVFDATCPLVTKVHMEVKKYSRDGMEMVLIGHAGHPEVEGTMGQVEEGMMYLVSNVSDVATLAPRNPDKLAYITQTTLSMDDTAEVIVALRSRFPLIEGPKKDDICYATQNRQDAVKSLAPDVDILLVVGAPNSSNSSRLAELGTRLGTQTHLIEDAQQLRREWFEGVGKIGISAGASAPESLVQEIMDTLRGWGARVPQEMPGVEEKVTFSLPLALIQAQTRREGA”: the “soluble on expression in E. coli” value is recorded as “not soluble”. As to “MGSDKIHHHHHHMDIQKIAKFFEQLQNQDFAQWEDCFGKYDVEFSDDTAETFSQSCDHVVLFNNRLSKVMLLKTSDSILSIGGFQAHNRGKIEAKNRKKTLITIPTQLANDSFGTNRYSLQDNERKPSMGGIYPCKTIFDFSILLSNEIEKSLWGIGEYVGVYFSIIDYSSKYQENFEELIAWTVEQIDELSSLLKREDNRTILRRIASLLTVKCLIMRSNGNHEIGCSIDHSFARYLENKIQIPHGKAVYLGSLLTLLFYPEWEDKGLSLEKLFKIGHYVGITMSDIQYLKTQDFSTLVKEASLLRPKRSFSLDQIQEGEAMRIKKAKERANMITQIWDR”, the “soluble on expression in E. coli” value is recorded as “not soluble”. The entry for “MGSDKIHHHHHHMDIRSLKLYLHLCDSLHFAKTAEQMHMSPSTLSRTLQRLEDEVGGKLFERDNRSVALTHAGKEFKLFAEHTLSQWLSLKGKVDPQQAQLHGQLSLYCSVTAAYSHLPKLLDRFRSIHPNVDIKLATGDAANAVNELNRNRADIAIIALPDNLASSLFFTAIDKVPLSLIVPTITCPVQQAISQANIAWQDLPYIVPEHGPGRQRADNWFKAMGFKPNIYAQVAGQEAIASMVALGCGVAISPEVVINNSPVRDRIQMLASPITIPAFELGFCCKKKRLEEAVLKAFLASWAIE” is “not soluble”.
